# Measurements: US20240166705A1
# Assays:
# [1] = target: XENP37827 (IL18×Fab-Fc fusion with WT-4CS IL18 and a silent Fv) (human); assay: cell-based or functional assay
# [2] = target: XENP38865 (IL18×Fab-Fc fusion, IL18 4CS/K53A, silent Fv) (human); assay: cell-based or functional assay
# XENP38865 (IL18×Fab-Fc fusion, IL18 4CS/K53A, silent Fv) (human), sequence (Q14116 other isoform, or with tags, fused parts or gaps K53A K53A): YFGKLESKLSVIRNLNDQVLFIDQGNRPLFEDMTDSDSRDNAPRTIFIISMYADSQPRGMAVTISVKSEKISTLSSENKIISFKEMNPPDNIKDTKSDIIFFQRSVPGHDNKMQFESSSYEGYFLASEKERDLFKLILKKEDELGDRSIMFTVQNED
# XENP37827 (IL18×Fab-Fc fusion with WT-4CS IL18 and a silent Fv) (human), sequence (Q14116 other isoform, or with tags, fused parts or gaps): as the sequence (Q14116 other isoform, or with tags, fused parts or gaps K53A K53A) above, with A53K counted along it
substance,measurement,setting,value
IL18 binding protein (IL18BP) (from UniProt O95998 31-194),IC50 of dose dependent inhibition of KG-1 cell activation (induction of PD-L1 expression) by IL18BP at fixed concentration (10 nM) of the IL18 fusion,[1],0.0055 µM
same,IC50 of dose dependent inhibition of KG-1 cell activation (induction of PD-L1 expression) by IL18BP at fixed concentration (10 nM) of the IL18 fusion,[2],0.0887 µM
